Experimental data taken from publication doi:10.1101/2021.08.16.456439.

How the values were obtained:
CyPet-Ubc9 = CyPet-Ubc9 (UniProt P63279); assay: FRET or BRET
[1] = molecular target: CyPet-NS1 (influenza virus) (UniProt P03496); assay: FRET or BRET

UniProt P63279, sequence (P63279 whole entry): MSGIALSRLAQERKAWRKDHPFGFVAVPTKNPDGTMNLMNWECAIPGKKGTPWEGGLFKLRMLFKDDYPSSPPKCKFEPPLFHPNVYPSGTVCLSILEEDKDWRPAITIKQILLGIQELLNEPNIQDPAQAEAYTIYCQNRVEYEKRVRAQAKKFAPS

Row | Substance | Kd (CyPet-Ubc9) [µM] | Kd [1] [nM]
1 | YPet-NS1 (from UniProt P03496 1-230) (natural protein) | 4.84 | –
2 | YPet-PIAS1 (from UniProt O75925 1-651) (enzyme) | – | 2960
